Patent publication US8030048B2, “Enantioselective epoxide hydlrolase and method for preparing and enantiopure epoxide using the same” (Korea Ocean Research and Development Institute, priority 2005, dated 2011)

Legend:
[1] = biological target: T1, Erythrobacter litoralis HTCC2594 epoxide hydrolase rEEH1 (EEH1), SEQ ID NO: 13 (Erythrobacter litoralis, UniProt Q2NAV3); test: Kinetic parameters of purified rEEH1 by GC analysis with (R)- or (S)-styrene oxide; assay type: biochemical; conditions: 100 mM potassium phosphate pH 8.0, 30° C.
T1 construct: microsomal-EH-like
T1 sequence (Q2NAV3 1-373): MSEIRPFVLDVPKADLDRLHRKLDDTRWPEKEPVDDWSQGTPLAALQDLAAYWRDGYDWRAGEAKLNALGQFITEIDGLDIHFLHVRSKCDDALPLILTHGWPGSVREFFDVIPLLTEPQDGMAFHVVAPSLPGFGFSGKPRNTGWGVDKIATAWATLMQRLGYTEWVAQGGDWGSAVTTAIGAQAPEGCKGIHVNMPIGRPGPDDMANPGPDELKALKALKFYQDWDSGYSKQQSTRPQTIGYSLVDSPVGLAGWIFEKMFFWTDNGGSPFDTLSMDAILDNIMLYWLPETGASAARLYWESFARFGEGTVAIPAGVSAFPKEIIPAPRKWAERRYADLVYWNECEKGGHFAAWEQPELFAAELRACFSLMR
Description: (§1) Kinetic parameters of the rEEH1, rEEH2, rEEH3, sEEH, nEEH, and rEEH were determined by a GC analysis using (R)- or (S)- styrene oxide substrate. 100 ul of purified EHases were mixed with various concentrations of (R)- or (S)- styrene oxide in a 10 ml tube containing 1 ml of potassium phosphate buffer (100 mM, pH 8.0), and shake-incubated at 200 rpm and a temperature of 30° C. The extraction mixtures were extracted with 2 ml of hexane, and enantiomeric excess [ee; ee=100×(S−R)/(S+R)] toward enantiopure styrene oxide was analyzed with a chiraldex gamma-cyclodextrin trifluoroacetyl(G-TA) capillary GC column. Wherein, the FIG. 8 was diagramed with GC analysis for the hydrolyzing activities of enantioselective EHases (rEEH1, rEEH2, and rEEH3) toward racemic styrene oxide.
(§2) Kinetic parameters were estimated by non-linear regression analysis using a Sigma Plot program, and various substrates as depicted in FIG. 1 were also tested for the enantioselective hydrolyzing activity by rEEH1, rEEH2, rEEH3, sEEH, nEEH, and rEEH.

[2] = Enantioselective hydrolyzing activity of purified EHases toward EX; assay type: biochemical
Description: as §1, §2

[3] = Enantioselective hydrolyzing activity of purified EHases toward EB; assay type: biochemical
Description: as §1, §2

[4] = Enantioselective hydrolyzing activity of purified EHases toward SO; assay type: biochemical
Description: as §1, §2

[5] = Enantioselective hydrolyzing activity of purified EHases toward EF; assay type: biochemical
Description: as §1, §2

[6] = Kinetic parameters of purified EHases by GC analysis, (S)-styrene oxide; assay type: biochemical; conditions: (S)-enantiomer of styrene oxide, Table 5
Description: as §1, §2

[7] = Kinetic parameters of purified EHases by GC analysis, (R)-styrene oxide; assay type: biochemical; conditions: (R)-enantiomer of styrene oxide, Table 5
Description: as §1, §2

[8] = substrate: c1ccc([C@@H]2CO2)cc1; test: Kinetic parameters of purified rEEH1 by GC analysis with (R)- or (S)-styrene oxide; assay type: biochemical, Erythrobacter litoralis HTCC2594; conditions: other: 100 mM potassium phosphate pH 8.0, 30° C.
Description: as §1, §2

[9] = substrate: c1ccc([C@H]2CO2)cc1; test: as above; assay type: biochemical, Erythrobacter litoralis HTCC2594; conditions: other: 100 mM potassium phosphate pH 8.0, 30° C.
Description: as §1, §2

[10] = Enantioselective hydrolyzing activity of purified EHases toward GPE; assay type: biochemical
Description: as §1, §2

[11] = Substrate selectivity of rEEH1, rEEH2 and rEEH3 toward various epoxide substrates; assay type: biochemical; conditions: purified enzyme
Description: Also, the substrate selectivity of rEEH1, rEEH2 and rEEH3 toward various epoxide substrates depicted in FIG. 1 was same to Table 4.
as §2

[12] = Effects of pH and temperature on the EHase activity of rEEH1, rEEH2 and rEEH3; assay type: biochemical
Description: The effect of pH on the EHase activity was measured with 50 mM sodium acetate-acetic acid buffer (pH 4.0 and 6.0), 50 mM MES buffer (pH 6.0 to 7.0), 50 mM Phosphate buffer (pH 7.0 to 9.0), and 50 mM Glycine buffer (pH 9.0 and 10.0), and the optimum reaction temperature on the EHase activity was measured over a temperature of range from 10 to 70° C. at pH 7.5.

## c1ccc([C@H]2CO2)cc1 [(S)-styrene oxide]
[1]
  Vmax: 1.18 µmol/min

## c1ccc([C@@H]2CO2)cc1 [(R)-styrene oxide]
[1]
  Vmax: 2.3 µmol/min

B1: Erythrobacter litoralis HTCC2594 epoxide hydrolase rEEH1 (EEH1), SEQ ID NO: 13 (Erythrobacter litoralis HTCC2594) (protein)
chain: T1 sequence (Q2NAV3 1-373)
notes: microsomal-EH-like
[2]; (R)-enantiomer
  Hydrolysis rate EX (R): 7.00 (×10^−2) mg/min
[2]; (S)-enantiomer
  Hydrolysis rate EX (S): 8.00 (×10^−2) mg/min
[3]; (R)-enantiomer
  Hydrolysis rate EB (R): 15.0 (×10^−2) mg/min
[3]; (S)-enantiomer
  Hydrolysis rate EB (S): 15.0 (×10^−2) mg/min
[4]; (R)-enantiomer
  Hydrolysis rate SO (R): 28.0 (×10^−2) mg/min
[4]; (S)-enantiomer
  Hydrolysis rate SO (S): 9.00 (×10^−2) mg/min
[4]; purified enzyme
  enantiomer preference in hydrolysis of styrene oxide, in words: (R)-styrene oxide was hydrolyzed faster than (S)-styrene oxide
[5]; (R)-enantiomer
  Hydrolysis rate EF (R): 4.00 (×10^−2) mg/min
[5]; (S)-enantiomer
  Hydrolysis rate EF (S): 15.0 (×10^−2) mg/min
[6]
  kcat Km: 10600 M⁻¹ s⁻¹
[7]
  kcat Km: 16300 M⁻¹ s⁻¹
[8]
  Km: 2900 µM
  Vmax: 2.3 µmol/min
  kcat: 49.1 s⁻¹
[9]
  Km: 2300 µM
  kcat: 24.5 s⁻¹
[10]; (R)-enantiomer
  Hydrolysis rate GPE (R): 11.0 (×10^−2) mg/min
[10]; (S)-enantiomer
  Hydrolysis rate GPE (S): 20.0 (×10^−2) mg/min
[11]
  substrate selectivity, in words: hydrolyzed enantioselectively toward monosubstituted epoxides with bulky ring at C-1 position
[12]; 10 to 70° C. at pH 7.5
  optimum temperature (maximum hydrolysis rate): 50 °C
[12]; activity toward styrene oxide, pH 4.0 to 10.0
  optimum pH: 6.5
